Assay results from US20150064204A1 (Amgen, published 2015).
Positions count from the first letter of the chain named.

T1: human GITR (Glucocorticoid-induced TNFR-related gene, TNFRSF18) (human, UniProt Q9Y5U5 26-241)
T1 sequence: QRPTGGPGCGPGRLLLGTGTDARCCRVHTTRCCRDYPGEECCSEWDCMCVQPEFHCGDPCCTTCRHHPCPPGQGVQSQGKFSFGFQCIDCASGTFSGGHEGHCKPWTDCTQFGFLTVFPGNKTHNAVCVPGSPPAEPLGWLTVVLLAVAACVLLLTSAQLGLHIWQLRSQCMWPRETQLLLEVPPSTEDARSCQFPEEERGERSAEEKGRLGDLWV

T2: human GITR (human, UniProt Q9Y5U5 26-241)
T2 sequence: T1 sequence

T3: cynomolgus monkey GITR (cynomolgus monkey, UniProt Q9Y5U5 26-241 (human entry))
T3 construct: also called cyno GITR
T3 chain: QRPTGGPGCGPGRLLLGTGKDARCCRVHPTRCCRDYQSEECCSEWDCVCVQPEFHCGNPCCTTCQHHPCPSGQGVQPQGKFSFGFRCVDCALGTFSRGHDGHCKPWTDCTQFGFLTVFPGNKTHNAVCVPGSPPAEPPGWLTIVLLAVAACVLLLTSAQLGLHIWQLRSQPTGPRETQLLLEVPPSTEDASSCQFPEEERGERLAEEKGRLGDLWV

B1: 44C1v1 (antibody, human IgG1, lambda, V domains shown)
VH: QVQLVESGGGVVQPGRSLRLSCAASGFTLSSYGMHWVRQAPGKGLEWVAVIWYDGSNKYYADSVKGRFTISRDNSKNTLYLQMNSLRAEDTAVYYCARRGTVTTPDFDYWGQGTLVTVSS
VL: QSALTQPASVSGSPGQSITISCTGTSSDVGTYNLVSWYQQHPGKAPKLMIYEVSKRPSGVSNRFSGSKSGNTASLTISGLQAEDEADYYCASYAGFSTWVFGGGTKLTVLG
notes: tied to 44C1v1 by Ab20 / SS-12514; also called Ab20; SS-12514
B2: 45A8v1 (antibody, human IgG1, lambda, V domains shown)
VH: QVQLVESGGGVVQPGRSLRLSCAASGFTFSSYGMHWVRQAPGKGLEWVAVIWHDGSNKYYADSVKGRFTISKDNSKNTLYLQMNSLRAEDTAVYYCAREYGGNFDYWGQGTLVTVSS
VL: B1 VL with V60I, F96Y, G111R
notes: tied to 45A8v1 by Ab21 / SS-12515; also called Ab21; SS-12515
B3: 49E2v1 (antibody, human IgG1, lambda, V domains shown)
VH: QVQLVESGGGVVQPGRSLRLSCAASGFTFSSYGMHWVRQAPGKGLEWVAVIWSDGNNKYYEDSVKGRFTISRDSSKNTLFLQMNSLRAEDTAVYYCARDTATPFDYWGQGTLVTVSS
VL: B1 VL with T31I, Y51H, F96I
notes: tied to 49E2v1 by Ab23 / SS-12516; also called Ab23; SS-12516
B4: 48A9v1 (antibody, human IgG1, kappa, V domains shown)
VH: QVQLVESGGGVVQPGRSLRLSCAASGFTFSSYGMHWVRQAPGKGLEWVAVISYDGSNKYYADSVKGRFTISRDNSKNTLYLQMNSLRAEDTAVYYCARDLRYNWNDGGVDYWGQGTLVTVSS
VL: DIQMTQSPSSLSASVGDRVIITCRASQSISSYLHWYKQKPGKAPKLLIYGASRLQSGVPSRFSGSGSGTDFTLTISSLQPEDFATYYCQQSSSTPLTFGGGTKVEIKR
notes: tied to 48A9v1 by Ab24 / SS-12513; also called Ab24; SS-12513
B5: 46E11 (antibody, human IgG1, kappa, V domains shown)
VH: QVQLVESGGGVVQPGRSLRLSCAASGFTFSSYGMHWVRQAPGKGLEWVAVIWYAGSNKYYADSVKGRFTISRDNSKNTLYLQMNSLRAEDTAVYYCARGDILTGYSLYYGMDVWGQGTTVTVSS
VL: DIQMTQSPSSLSASVGDRVTITCRASQGIRNDLGWYQQKPGKAPKRLIYAASSLQSGVPSRFSGSGSGAEFTLTISSLQPEDFATYYCLQHNSYPWTFGQGTKVEIKR
notes: Fully human parental antibody; also called Ab11; SS-12421
B6: 5H7v2 (antibody, human IgG1, kappa, V domains shown)
VH: QVQLQESGPGLVKPSETLSLTCTVSGGSISSGGYFWSWIRQPPGKGLEWIGYIYYSGTTYYNPSLKSRVTISIDTSKNQFSLKLSSVTAADTAVYYCARDLFYYDTSGPRGFDPWGQGTLVTVSS
VL: EIVLTQSPGTLSLSPGERATLSCRASQTVSSNYLAWYQQKPGQAPRLLIYGSSTRATGIPDRFSGSGSGTDFTLTISRLEPEDFAVYYCQQYDSSPWTFGQGTKVEIKR
notes: Engineered variant; also called Ab26; SS-13807
B7: 7A10v1 (antibody, human IgG1, kappa, V domains shown)
VH: QVQLVESGGGVVQPGRSLRLSCAASGFTFSSYGMHWVRQAPGKGLEWMAVIWYVGSNKYYADSVKGRFTISRDNSKNTLYLQMNSLRAEDTAVYYCARGGELGRDYYSGMDVWGQGTTVTVSS
VL: B5 VL with A69T, L89Q
notes: Engineered variant; also called Ab39; SS-13810
B8: 41G5v2 (antibody, human IgG1, kappa, V domains shown)
VH: B7 VH with M48V, V54P, D62E, D105Y, S108Y
VL: B5 VL with I21V, A69T, S93N, E105D
notes: Engineered variant; also called Ab56; SS-13809
B9: 33C9v2 (antibody, human IgG1, kappa, V domains shown)
VH: B7 VH with L4V, M48V, A49S, V54E, D62E, E101L, R104Y, D105Y, S108Y
VL: B5 VL with A50D, A69T, N92H
notes: Engineered variant; also called Ab51; SS-13808
B10: 9H6v3 (antibody, human IgG1, kappa, V domains shown)
VH: B7 VH with A23V, V37I, M48V, V54E, D62E, E101R, R104K
VL: B5 VL with A51T, A69T, S93T
notes: Engineered variant; also called Ab46; SS-13806

target: T1, human GITR (Glucocorticoid-induced …); experiment: cell-based or functional assay

| IFNg Secretion (Fold over CD3) | IFNg Secretion EC50 | Binder |
| --- | --- | --- |
| 1.6 fold over CD3 | 11.4 ng/mL | B1 |
| 1.8 fold over CD3 | 0.7 ng/mL | B2 |
| 1.9 fold over CD3 | 2.2 ng/mL | B3 |
| 0.9 fold over CD3 | 79.1 ng/mL | B4 |
| 2.2 fold over CD3 | 0.9 ng/mL | B5 |

target: T2, human GITR; experiment: cell-based or functional assay

| Proliferation (Fold over CD3) | Proliferation EC50 | Binder |
| --- | --- | --- |
| 3.2 fold over CD3 | 11 ng/mL | B6 |
| 3 fold over CD3 | 3 ng/mL | B7 |
| 3.5 fold over CD3 | 3 ng/mL | B8 |
| 2.9 fold over CD3 | 7 ng/mL | B9 |
| 3.7 fold over CD3 | 6 ng/mL | B10 |

target: T2, human GITR; experiment: cell-based or functional assay; remark: another data set of the same source

| Activation EC50 ng/mL (IFNg secretion) | Proliferation (Fold over CD3) | Binder |
| --- | --- | --- |
| 1.6 ng/mL | 3.2 fold over CD3 | B6 |
| 0.32 ng/mL | 3 fold over CD3 | B7 |
| 0.64 ng/mL | 3.5 fold over CD3 | B8 |
| 0.86 ng/mL | 2.9 fold over CD3 | B9 |
| 0.06 ng/mL | 3.7 fold over CD3 | B10 |

Target: T3, cynomolgus monkey GITR
Experiment: flow cytometry, cyno T cell binding

| EC50 | Binder |
| --- | --- |
| 619 ng/mL | B6 |
| 173 ng/mL | B7 |
| 153 ng/mL | B8 |
| 301 ng/mL | B9 |
| 184 ng/mL | B10 |

target: T2, human GITR; experiment: flow cytometry, human T cell binding

| EC50 | Binder |
| --- | --- |
| 164 ng/mL | B6 |
| 27 ng/mL | B7 |
| 33 ng/mL | B8 |
| 35 ng/mL | B9 |
| 26 ng/mL | B10 |

target: T2, human GITR; experiment: flow cytometry on activated human T cells

| EC50 | Binder |
| --- | --- |
| 279 ng/mL | B6 |
| 56 ng/mL | B7 |
| 57 ng/mL | B8 |
| 60 ng/mL | B9 |
| 90 ng/mL | B10 |

Target: T3, cynomolgus monkey GITR
Experiment: cyno T cell binding EC50 against human T cell binding EC50

| Cyno:Hu Binding EC50 Ratio | Binder |
| --- | --- |
| 3.7 ratio | B6 |
| 6.4 ratio | B7 |
| 4.6 ratio | B8 |
| 8.6 ratio | B9 |
| 7.1 ratio | B10 |

target: T1, human GITR (Glucocorticoid-induced …); experiment: flow cytometry (MFI), antibody titration on anti-CD3-activated primary human T cells (CD25+CD4+)
Protocol: Cells were collected and washed and then incubated at 4 C with titrations of the anti-human GITR antibodies or a human IgG1 isotype control antibody. After washing, cells were stained at 4 C with fluorochrome conjugated anti-human CD4 and anti-human CD25 antibodies to identify activated CD4+ effector T cells and with fluorochrome-conjugated anti-huIgG to detect bound anti-human GITR antibodies. The mean fluorescence intensity (MFI) of the anti-human GITR antibodies bound to CD25+CD4+ cells was determined by flow cytometry. The EC50s of the binding curves were calculated using GraphPad Prism® software.

| EC50 | Binder |
| --- | --- |
| 802 ng/mL | B1 |
| 102 ng/mL | B2 |
| 318 ng/mL | B3 |
| 145 ng/mL | B4 |
| 30 ng/mL | B5 |
